Data as given in US20090203580.

Experiments:
[1] = system: heat-inactivated alpha-1 antitrypsin
[2] = system: human alpha-1 antitrypsin (native, not heat-inactivated; clinical grade, e.g. Aralast)

## elastase (e.g., Sigma), species not stated
[1]
  elastase activity: hydrolysis of N-Succinyl-Ala-Ala-Ala-p-nitroanalide, absorbance at 410 nm: combining HIAAT with elastase produced a curve similar to that of elastase alone
[2]
  elastase activity: hydrolysis of N-Succinyl-Ala-Ala-Ala-p-nitroanalide, absorbance at 410 nm: Combining native (NOT heat-inactivated) AAT ablated elastase processing of the N-Succinyl-Ala-Ala-Ala-p-nitroanalide substrate and blocked the increase in A410 nm
